Source: patent US20080026077A1, “METHODS AND COMPOSITIONS OF GENE DELIVERY AGENTS FOR SYSTEMIC AND LOCAL THERAPY” (priority 2002, published 2008)
Read-outs that look alike come from different tables or passages of the source. Marks after values point to notes of the source that are not given here. No end group written: not given here.

Tests used:
[1] = tibia, 24 hours after oral dosing, 4 mg/kg alendronate, with or without 4× molar BAC-A6
Procedure: Male Swiss CFW mice 25-28 g are fed or fasted overnight and subsequently lightly anesthetized with isoflurane by inhalation prior to oral dosing. Mice are administered 0.2 ml of the dosing solution. 24 hrs after dosing the mice are sacrificed and the tibia collected. […] The amount of 14CO2 is quantified by scintillation counting.

[2] = Oral gavage of zanamivir with various BAC analogs, plasma zanamivir; format: in vivo, Male Swiss CFW mice; conditions: fasted mice, 1 mg/kg zanamivir, BAC 1x equal molar; for Increase in concentration above H2O control / Mean Plasma Zanamivir Concentration: 30 min
From the text: Plasma zanamivir concentrations are quantified by LC/MS/MS analysis.

[3] = Critical micellar concentration (CMC) of BACs, dye solubilization method; format: physicochemical; conditions: DPH dye solubilization, 50 mM Tris buffer pH 8.0
Procedure: Briefly, serial dilutions of a 7 mg/ml solution of the BACs are made in 50 mM Tris buffer pH 8.0. 10 ul of the dye 1,6-diphenyl-1,3,5-hexatriene (DPH, Sigma) (0.4 mM in methanol) is added to each ml. After overnight RT incubation in the dark, the absorbance of the samples at 356 nm is recorded. Linear regression of the data points above baseline was performed and the calculated CMC derived from the x intercept. The results for thirteen different BACs are shown in Table 1 based on a chendoxycholamide of the detailed motifs.

[4] = Octanol/buffer partitioning of carboxyfluorescein mixed with BAC analogs; format: physicochemical; conditions: 4 nmoles carboxyfluorescein, 281 nmoles BAC
Procedure: Partitioning of the fluorescent compound carboxyfluorescein by a BAC of Formula I into the octanol phase of an octanol/buffer portioning system for a series of BAC compounds is determined following standard methods. […] The mixture is vortexed for 5 mins and the incubated at room temperature for 3 hours. The solution is centrifuged to facilitate complete phase separation and a 100 μl of aqueous material is withdrawn for fluorescent measurement.

[5] = In situ intestinal absorption, single pass perfusion of radiolabeled BAC/pDNA; format: in vivo; conditions: complexes with membrane translocating BAC
Procedure: In order to examine the capability of the BAC/pDNA complex to bind and/or be absorbed onto the intestinal lumen cells the absorption of nicked-radiolabeled pDNA in a single pass perfusion experiment is tested. Using isolated ileal or jejunal segments radio-labeled BAC/pDNA mixtures mixture is mixed with HEPES buffer, pH 7.4, and perused at jejunal (filled symbols) and ileal (open symbols) sites. After 30 min of steady state, sample fractions are collected and the absorbed fraction of BAC/pDNA calculated. BAC/pDNA mixtures used are pDNA:BAC 1:27,000 neutrally charged and 1:54,000 molar ratios positively charged. Uncomplexed pDNA is used as a control.

Molecule	Increase in concentration above H2O control [2]	Calculated CMC concentration [3]	Mean Plasma Zanamivir Concentration [2]	also measured
NCCCC(O)(P(=O)(O)O)P(=O)(O)O [Alendronate, alendronate]	–	–	–	Bone deposition of 14C-alendronate, mean dpm/mg bone ([1]; Fasted mice): 3.92 dpm/mg; Bone deposition of 14C-alendronate, mean dpm/mg bone ([1]; Fed mice): 9.51 dpm/mg
CC(=O)N[C@H]1[C@H]([C@H](O)[C@H](O)CO)OC(C(=O)O)=C[C@@H]1N=C(N)N [Zanamivir, zanamivir, reference compound]	1 fold	–	–	concentration at 30 min ([2]; male, Swiss CFW, mouse, plasma): 55 ng/mL
B7: chendoxycholamide bile acid conjugate, peptide Z = -RRRARRR (not fully specified (N-terminus); printed as -RRRARRR; also: chenodeoxycholamide bile acid conjugate, attachment not placed)	4 fold	>5.0* mM	228 ng/mL	–
C8: chendoxycholamide bile acid conjugate, peptide Z = -RRARRARR (not fully specified (N-terminus); printed as -RRARRARR; also: chenodeoxycholamide bile acid conjugate, attachment not placed)	4 fold	4.4 mM	223 ng/mL	–
Carboxyfluorescein	–	–	–	Fluorescence Units ([4]; aqueous phase after octanol/buffer partitioning): 78614; LogD ([4]; carboxyfluorescein, octanol/buffer): −1.638
D9: chendoxycholamide bile acid conjugate, peptide Z = -RARARARAR (not fully specified (N-terminus); printed as -RARARARAR; also: chenodeoxycholamide bile acid conjugate, attachment not placed)	–	1.7 mM	–	–
N-E9 motif of chenoxycholamide (RAWARAWAR; also: chenodeoxycholamide bile acid conjugate, site not given here)	22 fold	1.2 mM	1227 ng/mL	–
membrane translocating BAC: 12-residue membrane translocating peptide (SEQ ID NO: 23) coupled to bile acid by an ether linkage (AAVLLPVLLAAP; also: coupled to bile acid by an ether linkage, site not given here)	–	–	–	in situ intestinal absorption compared with FIG. 7 [5]: comparable results to those depicted in FIG. 7
